T1: ULK1 (human, UniProt O75385 1-1050)
T1 construct: also called HA-ULK1
T1 sequence (looked up): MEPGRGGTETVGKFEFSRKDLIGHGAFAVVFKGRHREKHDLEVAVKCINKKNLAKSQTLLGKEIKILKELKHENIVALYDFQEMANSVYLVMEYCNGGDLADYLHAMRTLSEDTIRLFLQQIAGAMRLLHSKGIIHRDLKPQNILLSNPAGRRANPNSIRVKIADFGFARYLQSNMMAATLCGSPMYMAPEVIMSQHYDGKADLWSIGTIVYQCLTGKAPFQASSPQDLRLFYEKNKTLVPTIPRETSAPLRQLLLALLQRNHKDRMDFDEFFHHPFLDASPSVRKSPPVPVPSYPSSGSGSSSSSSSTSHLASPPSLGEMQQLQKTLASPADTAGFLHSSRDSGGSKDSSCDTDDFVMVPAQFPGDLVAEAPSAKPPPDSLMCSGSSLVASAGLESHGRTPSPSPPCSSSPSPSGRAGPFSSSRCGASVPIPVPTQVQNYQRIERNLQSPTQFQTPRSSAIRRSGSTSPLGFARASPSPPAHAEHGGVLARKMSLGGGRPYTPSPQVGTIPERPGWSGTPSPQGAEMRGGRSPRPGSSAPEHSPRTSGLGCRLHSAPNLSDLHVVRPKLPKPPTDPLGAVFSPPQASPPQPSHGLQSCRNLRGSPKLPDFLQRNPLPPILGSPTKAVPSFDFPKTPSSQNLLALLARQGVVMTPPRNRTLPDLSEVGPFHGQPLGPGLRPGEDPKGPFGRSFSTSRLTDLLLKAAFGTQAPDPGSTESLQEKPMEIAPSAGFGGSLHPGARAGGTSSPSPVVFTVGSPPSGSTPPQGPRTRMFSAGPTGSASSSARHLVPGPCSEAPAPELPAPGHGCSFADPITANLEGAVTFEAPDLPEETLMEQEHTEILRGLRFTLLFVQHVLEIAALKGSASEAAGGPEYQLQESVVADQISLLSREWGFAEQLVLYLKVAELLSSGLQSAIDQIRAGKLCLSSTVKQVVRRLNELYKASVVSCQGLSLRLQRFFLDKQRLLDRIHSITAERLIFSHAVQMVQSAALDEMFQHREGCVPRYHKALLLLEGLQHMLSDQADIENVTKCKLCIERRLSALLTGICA

T2: ATG9A (human) (human, UniProt Q7Z3C6 1-839)
T2 construct: Transmembrane protein; co-IP from RIPA lysates; Tagged and endogenous human forms kept under one id; also called Flag-ATG9A; HA-ATG9A
T2 sequence (looked up): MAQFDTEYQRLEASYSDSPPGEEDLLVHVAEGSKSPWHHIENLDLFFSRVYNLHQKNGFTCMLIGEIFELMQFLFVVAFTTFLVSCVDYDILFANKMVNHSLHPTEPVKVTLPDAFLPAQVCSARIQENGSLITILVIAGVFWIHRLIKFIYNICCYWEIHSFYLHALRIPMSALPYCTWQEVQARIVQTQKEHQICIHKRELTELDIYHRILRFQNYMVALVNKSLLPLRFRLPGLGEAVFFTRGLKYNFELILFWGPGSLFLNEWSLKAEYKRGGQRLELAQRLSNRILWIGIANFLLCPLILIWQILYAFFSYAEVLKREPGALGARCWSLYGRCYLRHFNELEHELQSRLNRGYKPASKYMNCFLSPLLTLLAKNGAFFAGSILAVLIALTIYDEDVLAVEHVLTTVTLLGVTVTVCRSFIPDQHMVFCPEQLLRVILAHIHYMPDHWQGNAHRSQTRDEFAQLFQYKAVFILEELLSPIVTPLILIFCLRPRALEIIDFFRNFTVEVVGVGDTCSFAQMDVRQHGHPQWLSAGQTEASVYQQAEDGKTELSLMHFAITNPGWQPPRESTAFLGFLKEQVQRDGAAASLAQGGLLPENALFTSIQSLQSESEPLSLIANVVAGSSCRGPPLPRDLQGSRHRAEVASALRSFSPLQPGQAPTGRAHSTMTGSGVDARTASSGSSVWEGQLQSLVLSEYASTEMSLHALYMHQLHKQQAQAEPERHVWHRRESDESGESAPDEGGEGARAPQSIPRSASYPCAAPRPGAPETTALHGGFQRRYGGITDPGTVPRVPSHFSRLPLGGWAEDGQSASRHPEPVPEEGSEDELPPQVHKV

T3: ATG13 (human, UniProt O75143 1-517, limits assumed)
T3 sequence (looked up): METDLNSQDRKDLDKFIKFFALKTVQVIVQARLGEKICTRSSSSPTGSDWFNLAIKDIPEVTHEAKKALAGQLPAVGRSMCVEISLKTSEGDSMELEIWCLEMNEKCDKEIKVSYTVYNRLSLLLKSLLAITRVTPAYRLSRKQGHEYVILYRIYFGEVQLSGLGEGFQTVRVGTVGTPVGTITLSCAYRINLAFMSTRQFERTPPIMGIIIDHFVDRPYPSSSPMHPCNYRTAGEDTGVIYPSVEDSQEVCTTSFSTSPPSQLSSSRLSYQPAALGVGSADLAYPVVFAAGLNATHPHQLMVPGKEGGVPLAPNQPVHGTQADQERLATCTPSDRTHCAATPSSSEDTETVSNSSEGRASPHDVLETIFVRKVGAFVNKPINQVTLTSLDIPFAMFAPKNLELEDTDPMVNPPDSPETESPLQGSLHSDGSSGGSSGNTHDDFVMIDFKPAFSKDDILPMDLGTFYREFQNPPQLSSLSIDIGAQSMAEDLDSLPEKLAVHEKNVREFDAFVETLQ

T4: WIPI1 (human, UniProt Q5MNZ9 1-446)
T4 sequence (looked up): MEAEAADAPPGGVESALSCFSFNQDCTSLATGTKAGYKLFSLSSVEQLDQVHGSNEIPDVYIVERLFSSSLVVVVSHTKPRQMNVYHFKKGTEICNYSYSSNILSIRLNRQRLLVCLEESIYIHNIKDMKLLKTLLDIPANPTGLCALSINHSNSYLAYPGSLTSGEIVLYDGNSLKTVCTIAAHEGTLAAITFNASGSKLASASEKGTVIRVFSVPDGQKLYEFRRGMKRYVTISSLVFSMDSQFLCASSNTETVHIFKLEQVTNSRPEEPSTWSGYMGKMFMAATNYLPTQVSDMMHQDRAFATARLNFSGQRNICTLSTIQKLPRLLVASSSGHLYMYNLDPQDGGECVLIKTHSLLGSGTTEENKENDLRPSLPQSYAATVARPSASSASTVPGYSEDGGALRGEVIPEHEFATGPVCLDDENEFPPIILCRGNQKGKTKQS

B1: ERK1 (enzyme, UniProt P27361 1-379, looked up)
chain: MAAAAAQGGGGGEPRRTEGVGPGVPGEVEMVKGQPFDVGPRYTQLQYIGEGAYGMVSSAYDHVRKTRVAIKKISPFEHQTYCQRTLREIQILLRFRHENVIGIRDILRASTLEAMRDVYIVQDLMETDLYKLLKSQQLSNDHICYFLYQILRGLKYIHSANVLHRDLKPSNLLINTTCDLKICDFGLARIADPEHDHTGFLTEYVATRWYRAPEIMLNSKGYTKSIDIWSVGCILAEMLSNRPIFPGKHYLDQLNHILGILGSPSQEDLNCIINMKARNYLQSLPSKTKVAWAKLFPKSDSKALDLLDRMLTFNPNKRITVEEALAHPYLEQYYDPTDEPVAEEPFTFAMELDDLPKERLKELIFQETARFQPGVLEAP
notes: also called Mapk3
B2: Beclin 2 (human, full length) (other)
chain: MSSIRFLCQRCHQALKLSGSSESRSLPAAPAPTSGQAEPGDTREPGVTTREVTDAEEQQDGASSRSPPGDGSVSKGHANIFTLLGELGAMHMLSSIQKAAGDIFDIVSGQAVVDHPLCEECTDSLLEQLDIQLALTEADSQNYQRCLETGELATSEDEAAALRAELRDLELEEARLVQELEDVDRNNARAAADLQAAQAEAAELDQQERQHYRDYSALKRQQLELLDQLGNVENQLQYARVQRDRLKEINCFTATFEIWVEGPLGVINNFRLGRLPTVRVGWNEINTAWGQAALLLLTLANTIGLQFQRYRLIPCGNHSYLKSLTDDRTELPLFCYGGQDVFLNNKYDRAMVAFLDCMQQFKEEAEKGELGLSLPYGIQVETGLMEDVGGRGECYSIRTHLNTQELWTKALKFMLINFKWSLIWVASRYQK
notes: All tagged and endogenous human forms are kept under this one id; the form used is named under assay; also called BECN2; Flag-Beclin 2

Legend:
[1] = biological target: B2; assay: co-IP with anti-Flag beads and immunoblot; 293T cells co-transfected with Flag-Beclin 2 and an HA-tagged plasmid (FIG. 8A)
Method: (§1) The secondary antibody (Veriblot for IP detection reagent HRP) that only recognized native IgG but not denatured IgG was applied for immunoblotting of proteins in immunoprecipitates. For immunoprecipitation of Flag-tagged proteins, cell lysates were incubated with anti-Flag beads (Sigma) at 4° C. overnight. The beads were washed four times with RIPA lysis buffer, and immunoprecipitates were eluted with 2×SDS loading buffer. Immunoblotting was performed by loading the samples on SDS-PAGE gels, conducting electrophoresis, transferring the samples to PVDF membranes (Bio-Rad), and then incubating the membranes with the indicated antibodies. For all immunoblots, the LumiGLO Chemiluminescent Substrate System from KPL (Gaithersburg, MD) was used for protein detection.

ULK1 = biological target: T1, ULK1; assay: co-IP with anti-Flag beads and immunoblot; 293T cells co-transfected with Flag-Beclin 2 and HA-ULK1, complete or starvation medium (FIG. 10B)
Method: as §1

ATG9A (human) = biological target: T2, ATG9A (human); assay: co-IP with anti-Flag beads and immunoblot; 293T cells co-transfected with HA-Beclin 2 and a Flag-tagged plasmid (FIG. 10A)
ATG13 = biological target: T3, ATG13; assay: co-IP and immunoblot in 293T cells, as summed up in the discussion
FIP200 = biological target: T5, FIP200 (human, UniProt Q8TDY2 1-1594); assay: as above
T5 construct: also called Flag-FIP200; hFIP200

ERK5 = ERK5 (UniProt Q13164 1-816); assay: co-IP with anti-Flag beads and immunoblot; 293T cells co-transfected with Flag-Beclin 2 and an HA-tagged plasmid (FIG. 8A)
Method: as §1

WIPI1 = biological target: T4, WIPI1; assay: endogenous co-IP; 293T cell lysates immunoprecipitated with antibodies against each protein, immunoblot (FIG. 9D)
Method: as §1

Sequence of ERK5 (Q13164 whole entry): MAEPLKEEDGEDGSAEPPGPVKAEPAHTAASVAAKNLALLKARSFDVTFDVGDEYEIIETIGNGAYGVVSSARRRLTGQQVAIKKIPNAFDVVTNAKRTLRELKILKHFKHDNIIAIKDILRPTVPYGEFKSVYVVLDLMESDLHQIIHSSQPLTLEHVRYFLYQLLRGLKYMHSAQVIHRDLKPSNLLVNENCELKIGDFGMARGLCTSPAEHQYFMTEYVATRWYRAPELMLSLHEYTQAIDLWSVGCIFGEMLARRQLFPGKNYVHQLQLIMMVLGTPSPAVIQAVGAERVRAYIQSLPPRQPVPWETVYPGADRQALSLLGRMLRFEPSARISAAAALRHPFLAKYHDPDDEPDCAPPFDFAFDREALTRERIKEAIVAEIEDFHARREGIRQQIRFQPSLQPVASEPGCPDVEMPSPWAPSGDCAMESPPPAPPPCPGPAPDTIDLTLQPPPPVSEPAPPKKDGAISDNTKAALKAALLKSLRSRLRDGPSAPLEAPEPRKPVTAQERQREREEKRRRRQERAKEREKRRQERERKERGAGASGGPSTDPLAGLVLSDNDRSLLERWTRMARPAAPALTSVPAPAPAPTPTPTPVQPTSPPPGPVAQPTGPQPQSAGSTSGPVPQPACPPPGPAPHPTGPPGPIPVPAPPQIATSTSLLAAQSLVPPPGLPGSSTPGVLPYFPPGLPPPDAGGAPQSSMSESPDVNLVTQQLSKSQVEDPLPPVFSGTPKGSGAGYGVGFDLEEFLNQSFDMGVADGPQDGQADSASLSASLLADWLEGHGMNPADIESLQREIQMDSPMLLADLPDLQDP
T5 sequence (Q8TDY2 whole entry): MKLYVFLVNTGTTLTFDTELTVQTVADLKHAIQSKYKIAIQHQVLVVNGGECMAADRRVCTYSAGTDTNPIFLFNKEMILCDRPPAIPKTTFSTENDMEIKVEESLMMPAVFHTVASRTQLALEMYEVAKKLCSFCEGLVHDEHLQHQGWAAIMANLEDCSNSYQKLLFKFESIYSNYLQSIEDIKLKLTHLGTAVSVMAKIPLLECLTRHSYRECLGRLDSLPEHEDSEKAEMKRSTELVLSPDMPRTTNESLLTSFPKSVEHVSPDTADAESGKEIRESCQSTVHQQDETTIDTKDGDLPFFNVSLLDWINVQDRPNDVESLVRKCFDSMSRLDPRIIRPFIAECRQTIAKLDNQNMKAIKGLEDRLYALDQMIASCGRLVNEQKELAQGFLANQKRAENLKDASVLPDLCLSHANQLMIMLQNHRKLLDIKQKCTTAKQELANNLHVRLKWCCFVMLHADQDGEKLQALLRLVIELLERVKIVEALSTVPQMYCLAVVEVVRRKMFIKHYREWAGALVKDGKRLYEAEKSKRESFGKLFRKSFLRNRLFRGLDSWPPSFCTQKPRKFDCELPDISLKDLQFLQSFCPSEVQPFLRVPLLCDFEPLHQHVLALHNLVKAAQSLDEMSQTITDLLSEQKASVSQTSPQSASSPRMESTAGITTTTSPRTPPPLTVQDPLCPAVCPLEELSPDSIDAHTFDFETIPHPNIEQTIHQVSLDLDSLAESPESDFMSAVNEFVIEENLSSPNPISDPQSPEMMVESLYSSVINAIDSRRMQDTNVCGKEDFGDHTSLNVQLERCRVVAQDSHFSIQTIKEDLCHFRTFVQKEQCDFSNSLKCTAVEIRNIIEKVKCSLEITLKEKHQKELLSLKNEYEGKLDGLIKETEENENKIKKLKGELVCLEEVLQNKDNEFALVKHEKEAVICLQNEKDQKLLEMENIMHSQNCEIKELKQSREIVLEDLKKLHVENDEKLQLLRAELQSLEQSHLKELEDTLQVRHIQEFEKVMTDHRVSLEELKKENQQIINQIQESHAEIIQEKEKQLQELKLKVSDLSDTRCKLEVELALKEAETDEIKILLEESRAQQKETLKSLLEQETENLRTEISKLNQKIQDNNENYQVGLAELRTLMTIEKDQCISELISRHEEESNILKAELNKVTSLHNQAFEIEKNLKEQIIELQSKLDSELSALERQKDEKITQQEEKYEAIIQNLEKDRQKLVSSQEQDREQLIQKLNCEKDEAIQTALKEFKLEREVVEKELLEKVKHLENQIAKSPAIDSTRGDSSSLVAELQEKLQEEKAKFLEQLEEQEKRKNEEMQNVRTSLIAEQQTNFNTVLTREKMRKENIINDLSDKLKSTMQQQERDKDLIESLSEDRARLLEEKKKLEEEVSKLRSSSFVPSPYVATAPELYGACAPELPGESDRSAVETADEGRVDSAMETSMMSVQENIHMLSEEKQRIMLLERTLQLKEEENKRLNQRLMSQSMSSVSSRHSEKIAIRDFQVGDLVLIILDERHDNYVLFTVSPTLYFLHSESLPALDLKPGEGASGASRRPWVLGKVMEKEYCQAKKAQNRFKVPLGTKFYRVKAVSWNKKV

| Binder | binding result [1] | binding result (ULK1) | binding result (ATG9A (human)) | binding result (ATG13) | binding result (FIP200) | binding result (ERK5) | binding result (WIPI1) |
| --- | --- | --- | --- | --- | --- | --- | --- |
| B1 | no binding | – | – | – | – | – | – |
| B2 | – | binds | binds | no binding | no binding | no binding | binds |
